In publication PMC4215182:

Key:
[1] = biological target: T1, CPSF30 (within CPSF complex) (human? (HEK293), UniProt O95639 1-269); assay: UV cross-linking
[2] = biological target: T2, Wdr33 (within CPSF complex) (human? (HEK293), UniProt Q9C0J8 1-1336); assay: UV cross-linking
T2 sequence: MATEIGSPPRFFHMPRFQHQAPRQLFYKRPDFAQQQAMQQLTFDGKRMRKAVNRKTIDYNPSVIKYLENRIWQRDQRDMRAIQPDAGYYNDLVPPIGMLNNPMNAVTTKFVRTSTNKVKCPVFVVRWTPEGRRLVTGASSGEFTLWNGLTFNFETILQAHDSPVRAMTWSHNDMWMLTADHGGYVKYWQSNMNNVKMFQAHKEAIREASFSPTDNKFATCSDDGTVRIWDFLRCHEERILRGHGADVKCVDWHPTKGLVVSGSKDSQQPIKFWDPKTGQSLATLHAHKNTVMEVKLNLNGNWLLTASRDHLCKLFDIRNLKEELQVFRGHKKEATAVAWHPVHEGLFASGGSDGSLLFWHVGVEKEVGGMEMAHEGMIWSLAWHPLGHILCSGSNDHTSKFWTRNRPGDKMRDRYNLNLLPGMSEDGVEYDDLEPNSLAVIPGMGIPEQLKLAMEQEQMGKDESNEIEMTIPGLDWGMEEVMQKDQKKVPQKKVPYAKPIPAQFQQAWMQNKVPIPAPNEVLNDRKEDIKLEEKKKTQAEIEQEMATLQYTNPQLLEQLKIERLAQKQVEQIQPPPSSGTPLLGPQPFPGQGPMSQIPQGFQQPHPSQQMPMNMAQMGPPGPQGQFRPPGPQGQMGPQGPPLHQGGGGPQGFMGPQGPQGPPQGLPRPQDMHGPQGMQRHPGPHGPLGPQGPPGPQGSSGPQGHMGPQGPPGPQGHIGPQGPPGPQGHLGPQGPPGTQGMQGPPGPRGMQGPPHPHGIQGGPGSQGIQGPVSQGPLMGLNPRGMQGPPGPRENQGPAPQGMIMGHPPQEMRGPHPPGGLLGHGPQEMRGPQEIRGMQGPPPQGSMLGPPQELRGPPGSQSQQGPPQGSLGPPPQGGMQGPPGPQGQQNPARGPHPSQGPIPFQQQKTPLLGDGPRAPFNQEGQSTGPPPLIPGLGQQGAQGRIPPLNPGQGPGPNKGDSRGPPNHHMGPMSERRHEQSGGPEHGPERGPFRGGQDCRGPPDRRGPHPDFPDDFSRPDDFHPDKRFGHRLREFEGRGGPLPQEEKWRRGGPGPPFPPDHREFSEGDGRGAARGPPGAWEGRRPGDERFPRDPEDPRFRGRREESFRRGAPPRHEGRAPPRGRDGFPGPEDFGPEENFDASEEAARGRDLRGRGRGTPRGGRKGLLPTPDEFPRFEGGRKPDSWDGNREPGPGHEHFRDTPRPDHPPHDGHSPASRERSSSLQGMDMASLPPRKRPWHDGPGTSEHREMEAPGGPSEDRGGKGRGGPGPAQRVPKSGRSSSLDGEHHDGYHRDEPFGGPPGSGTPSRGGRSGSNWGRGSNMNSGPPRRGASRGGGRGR

[3] = biological target: T1, CPSF30 (within CPSF complex); assay: UV cross-linking, RNase, IP
[4] = biological target: T2, Wdr33 (within CPSF complex); assay: UV cross-linking, RNase, IP
[5] = biological target: T3, Fip1 (within CPSF complex) (human? (HEK293), UniProt Q6UN15 1-594); assay: UV cross-linking, RNase I, IP
T3 sequence: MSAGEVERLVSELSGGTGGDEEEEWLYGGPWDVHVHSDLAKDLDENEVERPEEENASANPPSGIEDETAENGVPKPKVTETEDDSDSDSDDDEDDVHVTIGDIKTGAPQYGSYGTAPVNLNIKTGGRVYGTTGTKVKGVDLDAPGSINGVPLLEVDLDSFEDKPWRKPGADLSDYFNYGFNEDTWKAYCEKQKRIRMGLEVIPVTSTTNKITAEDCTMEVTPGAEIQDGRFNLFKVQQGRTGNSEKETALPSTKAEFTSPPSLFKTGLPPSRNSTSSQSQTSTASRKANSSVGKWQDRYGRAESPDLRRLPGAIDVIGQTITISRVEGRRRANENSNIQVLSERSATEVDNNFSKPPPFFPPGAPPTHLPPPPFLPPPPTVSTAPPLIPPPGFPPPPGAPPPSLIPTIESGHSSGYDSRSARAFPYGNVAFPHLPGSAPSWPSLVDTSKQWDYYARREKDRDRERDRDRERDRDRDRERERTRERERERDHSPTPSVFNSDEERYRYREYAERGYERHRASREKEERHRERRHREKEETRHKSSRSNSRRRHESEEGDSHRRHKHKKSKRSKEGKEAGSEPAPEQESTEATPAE

[6] = biological target: CPSF complex (CPSF73-3xFlag immunopurified) (human? (HEK293), UniProt Q10570;Q9C0J8;Q9P2I0;Q9UKF6;Q6UN15;O95639;Q92797 …); assay: EMSA
[7] = biological target: Flag-CPSF30 (baculovirus) (UniProt O95639-2 1-244); assay: UV cross-linking
Flag-CPSF30 full length = Flag-CPSF30 full length (UniProt O95639-2 1-244); assay: UV cross-linking
[8] = biological target: CPSF complex with HA-CPSF30 full length (human? (HEK293), UniProt Q10570;Q9C0J8;Q9P2I0;Q9UKF6;Q6UN15;O95639-2;Q92797 …); assay: UV cross-linking

B1: L3 mutant (AAUAAC) (ssRNA)
RNA: AUGUACUAGGAGACACAAUAACGGCAAUGUUUUUAUUUGUA
binding result [1]: no binding | binding result [2]: no binding

B2: L3 wild type (ssRNA)
RNA: AUGUACUAGGAGACACAAUAAAGGCAAUGUUUUUAUUUGUA
binding result [3]: binds | binding result [4]: binds | binding result [5]: binds

B3: SVL mutant (AAGAAA) (ssRNA)
RNA: CUGCAAGAAACAAGUUAA
binding result [6]: no binding

B4: SVL wild type (ssRNA)
RNA: CUGCAAUAAACAAGUUAA
binding result [7]: binds | binding result (Flag-CPSF30 full length): binds | binding result [8]: binds | binding result [6]: binds
